Laboratory results taken from patent US5985273A, “Biological control of insects” (priority 1994, dated 1999).

Legend:
Lucilia cuprina larvae = experiment: Growth and survival of first instar sheep blowfly larvae on culture medium with inhibitor; assay type: in vivo; conditions: for Effect on larval growth, summary in words: Example 1, Table 1.2; for % Growth Inhibition / Average Larval Weight: Table 2.2; for Average Larval Weight: control 10.26
Teleogryllus commodus = experiment: Mortality of black field cricket nymphs on treated cabbage leaf disks; assay type: in vivo; conditions: after 7 days
Procedure: (i) Stock solutions of inhibitors and control solutions were prepared as aqueous solutions or suspensions as outlined in Table 6.1.
(ii) Mortality was assessed by commencing the study with 1st instar nymphs.
(iii) Cabbage leaf disks (5×8 mm diameter disks/treatment) were smeared with 100 μl of inhibitor or control stock solutions and allowed to dry. Disks were placed singly in 40 mm petri dishes, together with a moist cotton wool pas as water supply and a piece of fluted plastic for shelter.
(iv) Ten nymphs were placed on each disc and the dishes incubated at 25° C.
(v) Mortality was assessed daily and any dead individuals removed.

Tribolium castaneum = experiment: Growth and survival of Tribolium castaneum in treated flour; assay type: in vivo; conditions: Day 6; all dose levels
Procedure: Insects were cultured in cleaned, ground and sieved wholemeal flour made from organic wheat. Inhibitors from bottles of pre-weighed material were dry-mixed with the flour and residual inhibitor rinsed from bottles with a small volume of water. Rinse water was added to the flour and the mixture re-ground. The impregnated flour was transferred to a 20 mL vial and mixed thoroughly by shaking and inverting. Adults of T. castaneum were allowed to oviposit on flour, eggs were sifted from the flour and transferred one by one with a single hair to microwell tubes containing a small amount of flour. Each level of treatment was performed in triplicated using 32 wells/replicate. Assays were performed in triplicated. Cultures were incubated at 30° C. and 55% R H. After 6 days each replicate of 32 wells was combined, the larvae counted and the numbers compared with numbers in the control (no inhibitor) treatment. Larvae were classified as "small" if appreciably smaller than reference larvae, or abnormal if unusual behaviour or formation were observed (eg. twisting or twisted larvae). Test inhibitors and dose rates were the same as those used in Example 4.

O. surinamensis larvae = experiment: Weight reduction of Oryzaephylus surinamensis larvae in treated flour; assay type: in vivo
Procedure: Insects were cultured in cleaned, ground and sieved wholemeal flour made from organic wheat. Inhibitors from bottles of pre-weighed material were dry-mixed with the flour and residual inhibitor rinsed from bottles with a small volume of water. Rinse water was added to the flour and the mixture re-ground. The impregnated flour was transferred to a 20 mL vial and mixed thoroughly by shaking and inverting.
Adults of T. castaneum were allowed to oviposit on flour, eggs were sifted from the flour and transferred one by one with a single hair to microwell tubes containing a small amount of flour. Each level of treatment was performed in triplicated using 32 wells/replicate. Assays were performed in triplicated. Cultures were incubated at 30° C. and 55% R H.
The bioassay for this insect was outlined for T. castaneum, except incubations were conducted at 32.5° C. and 70% R H. After 8 days the insects were sieved from the flour and weighed.

[1] = tested on: Heliothis punctigens larvae; experiment: Growth and survival of cotton budworm larvae fed an artificial diet; assay type: in vivo; conditions: 10 days; for % Alive: control 70.0
Procedure: 1. The Haricot beans were cooked in a microwave for 40 minutes. 2. Agar was added to the hot water and stirred on a hot plate until almost boiling. 3. The haricot beans, agar mix, yeast and wheat germ was blended in an electric mixer for 3 minutes. 4. When the temperature has dropped to 60°C., the acids were added and mixed with the media. […] Inhibitor solutions or an equal volume of water were placed into sterilized glass tubes at designated concentrations. The artificial media was added to each tube (1.5 ml) using a sterile 10 ml syringe. First instar Heliothis punctigens larvae (1 larvae per tube) were added to the glass tubes and the tubes were capped. The tubes were incubated for 10 days at 25° C. The larvae were killed by placing the glass tubes at -70° C. for 24 hours, and then individually weighed. Percentage inhibition was calculated by comparison to control larvae.

Ctenocephalides felis = experiment: Development of cat flea eggs in dried blood diets; assay type: in vivo; conditions: Day 16
Procedure: Blood was collected from the jugular vein of a five year old merino sheep that had not been treated with an ectoparasitic agent for 18 months. The blood was collected into a 100 ml plastic bottle containing 0.8 ml of heparin and was maintained at 4° C. Inhibitors were pre-weighed into sterile 5 ml plastic vials and 4.5 ml of blood added. The samples were mixed, placed at -70° C. for 24 hours, then freeze-dried. The freeze-dried samples were sieved through a stainless steel 63 micron sieve, and placed into sterile 5 ml plastic vials (0.15 g/per tube). Four flea eggs were placed into each vial, and a sheet of tissue paper fastened by an elastic band was fitted to the top of each vial. The vials were incubated at 25° C. and 70-80% R H for 6 days. Vermiculite was then added to each vial to provide a supporting medium for the fleas to pupate and the tubes incubated at 25° C. and 70-80% R H, for a further 10 days. Ten control vials and three vials of each treatment were tested.
At the conclusion of the incubation period the vials were placed at -20° C. for 24 hours to kill the fleas. The number of eggs hatched and the life-cycle state was recorded.

[2] = tested on: European corn borer (ECB) neonatal larvae; conditions: 20 mg/ml of diet; laboratory assay; cited from earlier work
[3] = tested on: Southern corn rootworm (SCR) neonatal larvae; conditions: 20 mg/ml of diet; laboratory assay; cited from earlier work
L. cuprina eggs = experiment: Egg hatch of L. cuprina on liver in vitro; assay type: in vivo, Lucilia cuprina; conditions: 0.17 mM; 24 hours at 35° C.; control 71
Procedure: L. cuprina eggs were placed on pieces of liver (0.9 g) which were then placed in individual wells of a 24-well tissue culture plate. Phosphate buffered saline (PBS, 0.1 ml) containing inhibitors at set concentrations were added to each well with 30 freshly laid and sterilised eggs of L. cuprina. The culture plate was then maintained in a sterile environment at 35° C. for 24 hours, after which time the percentage hatch was assessed.

[4] = tested on: Bovicola ovis (Hartley strain); experiment: Survival of sheep lice on inhibitor treated wool; assay type: in vivo; conditions: of 10 lice, 24 Hours at 35° C.
[5] = tested on: Colorado potato beetle larvae; conditions: fed on potato leaves; cited from earlier work

Molecule: c1cnc2c(c1)ccc1cccnc12 [1,10-phenanthroline]
- Effect on larval growth, summary in words (Lucilia cuprina larvae): effective growth inhibitors
- Larval survival (Lucilia cuprina larvae; first instar larvae, tested at 1, 2.5, 5 mM): All larvae died
- Mortality (class) (Teleogryllus commodus; 5-20 mM): Medium (medium 21-40%)
- Larval size classification (Tribolium castaneum): normal
- inhibition at 5000 µM (O. surinamensis larvae; 192 h, 5 mM, 8 days, relative to untreated larvae, read-out: Percentage Growth Inhibition): 100%
- inhibition at 10000 µM (O. surinamensis larvae; 192 h, 10 mM, 8 days, relative to untreated larvae, read-out: Percentage Growth Inhibition): 63%
- inhibition at 20000 µM (O. surinamensis larvae; 192 h, 20 mM, 8 days, relative to untreated larvae, read-out: Percentage Growth Inhibition): 95%
- Growth inhibition, summary in words (O. surinamensis larvae; text summary of Table 9.1): highly effective

Molecule: CCCCC[C@H](CC(=O)NO)C(=O)N[C@H](C(=O)N1CCC[C@H]1CO)C(C)C [Actinonin]
- Effect on larval growth, summary in words (Lucilia cuprina larvae): effective growth inhibitors
- inhibition at 2500 µM (Lucilia cuprina larvae; Lucilia cuprina, first instar larvae, 2.5 mM): 83%
- inhibition at 10000 µM (Lucilia cuprina larvae; Lucilia cuprina, first instar larvae, 10 mM): 95%
- % Alive ([1]; 2.5 mM): 33.3%
- % Alive ([1]; 5.0 mM): 0.00%
- inhibition at 2500 µM ([1]; Heliothis, 240 h, 2.5 mM, read-out: % Growth Inhibition): 97.5%
- inhibition at 5000 µM ([1]; Heliothis, 240 h, 5.0 mM, read-out: % Growth Inhibition): 100%
- Percentage of Fleas Progressing Through to Pupation (Ctenocephalides felis; 1.40 mg in 4.5 ml of blood): 0%
- Percentage of Fleas Progressing Through to Pupation (Ctenocephalides felis; 2.80 mg in 4.5 ml of blood): 16.8%
- Mortality (class) (Teleogryllus commodus; 5 mM): None (none/low, 10-20% mortality)
- Larval size classification (Tribolium castaneum): small

Molecule: aprotinin
- Neonatal larvae killed [2]: 100%
- Neonatal larvae killed [3]: 60%

B1: Soybean Trypsin Inhibitor (protein, UniProt P01070 25-205, looked up)
Trypsin inhibitor A: DFVLDNEGNPLENGGTYYILSDITAFGGIRAAPTGNERCPLTVVQSRNELDKGIGTIISSPYRIRFIAEGHPLSLKFDSFAVIMLCVGIPTEWSVVEDLPEGPAVKIGENKDAMDGWFRLERVSDDEFNNYKLVFCPQQAEDDKCGDIGISIDHDDGTRRLVVSKNKPLVVQFQKLDKESL
- % Growth Inhibition (Lucilia cuprina larvae; 0.0425 mM): -22.5%
- Average Larval Weight (Lucilia cuprina larvae; 0.0425 mM): 12.57 10^-4 g
- % Growth Inhibition (Lucilia cuprina larvae; 0.085 mM): 28.5%
- Average Larval Weight (Lucilia cuprina larvae; 0.085 mM): 7.34 10^-4 g
- % Growth Inhibition (Lucilia cuprina larvae; 0.170 mM): 45.1%
- Average Larval Weight (Lucilia cuprina larvae; 0.170 mM): 5.63 10^-4 g
- % Growth Inhibition (Lucilia cuprina larvae; 0.340 mM): 69.3%
- Average Larval Weight (Lucilia cuprina larvae; 0.340 mM): 3.15 10^-4 g
- % Growth Inhibition (Lucilia cuprina larvae; 0.680 mM): 70.6%
- Average Larval Weight (Lucilia cuprina larvae; 0.680 mM): 3.02 10^-4 g
- Growth Inhibition (Lucilia cuprina larvae; first instar larvae, 0.17 mM): 76%
- Growth Inhibition (Lucilia cuprina larvae; first instar larvae, 0.40 mM): 64%
- % Hatch (L. cuprina eggs): 17%
- Percentage of Fleas Progressing Through to Pupation (Ctenocephalides felis; 5.0 mg in 4.5 ml of blood): 0%
- Percentage of Fleas Progressing Through to Pupation (Ctenocephalides felis; 10.0 mg in 4.5 ml of blood): 0%
- Mortality (class) (Teleogryllus commodus; 0.17-0.68 mM): None (none/low, 10-20% mortality)
- Number of Living Lice ([4]; Adult, 0.17 mM): 4
- Number of Living Lice ([4]; Adult, 0.34 mM): 0
- Number of Living Lice ([4]; Adult, 0.68 mM): 0
- Number of Living Lice ([4]; instar 1, 0.17 mM): 1
- Number of Living Lice ([4]; instar 1, 0.34 mM): 1
- Number of Living Lice ([4]; instar 1, 0.68 mM): 0
- Number of Living Lice ([4]; instar 2, 0.17 mM): 2
- Number of Living Lice ([4]; instar 2, 0.34 mM): 0
- Number of Living Lice ([4]; instar 2, 0.68 mM): 0
- Number of Living Lice ([4]; instar 3, 0.17 mM): 2
- Number of Living Lice ([4]; instar 3, 0.34 mM): 4
- Number of Living Lice ([4]; instar 3, 0.68 mM): 0
- Percentage Growth Inhibition (O. surinamensis larvae; 0.17 mM, 8 days, relative to untreated larvae): 12%
- Percentage Growth Inhibition (O. surinamensis larvae; 0.34 mM, 8 days, relative to untreated larvae): 30%
- Percentage Growth Inhibition (O. surinamensis larvae; 0.68 mM, 8 days, relative to untreated larvae): 46%
- Growth retardation [5]: ineffective
